Results from publication PMC11728703.
Values joined by “and” are separate entries in the source; they are usually repeats but may differ in a detail not shown here. Identical values can stand only once.

Biological target: Bacteriophage P22 small terminase subunit gp3 (S-terminase), full length (bacteriophage P22)
Assay: native MS; co-purified S:L-terminase complex (peak 2) exchanged into 150 mM ammonium acetate pH 8.0, 2 uM, nanoflow electrospray capillary; modified QTOF-2 and Exactive Plus EMR Orbitrap

Sequence of Bacteriophage P22 small terminase subunit gp3 (S-terminase), full length (bacteriophage P22) (P04893 whole entry): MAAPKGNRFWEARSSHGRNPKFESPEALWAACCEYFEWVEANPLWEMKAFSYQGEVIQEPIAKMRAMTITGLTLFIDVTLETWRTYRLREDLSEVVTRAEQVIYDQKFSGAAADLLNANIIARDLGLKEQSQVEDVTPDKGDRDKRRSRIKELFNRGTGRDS

Row | Substance | stoichiometry N | stoichiometry N (gp2 per 1 (gp3)9) | stoichiometry N (gp2 per 2 (gp3)9) | stoichiometry N (gp2 per 3 (gp3)9)
1 | Bacteriophage P22 small terminase subunit gp3 (S-terminase), full length (natural protein) | 9 | – | – | –
2 | Bacteriophage P22 large terminase subunit gp2 (L-terminase), full length (enzyme) | – | 1 and 2 | 5 | 7
